According to patent US20250051467A1 (JIANGSU HENGRUI PHARMACEUTICALS, published 2025):

Key:
[1] = molecular target: human CD40 on cells (Raji cells; HEK-Blue CD40L cells; human dendritic cells) (human, UniProt P25942 21-277); experiment: cell-based or functional assay
[2] = molecular target: T1, human CD40 with C-terminal Flag tag on HEK293 cells (human, UniProt P25942 21-277); experiment: FACS, HEK293 cells transiently expressing human CD40
T1 construct: whole, on cells; also called HEK293 cells highly expressing CD40; cell strain highly expressing human CD40
Description: The ability of the humanized antibodies to bind to cells highly expressing the human antigen protein CD40 was measured by FACS. HEK293 cells were transiently transfected with CD40 plasmids (CD40 cDNA ORF Clone, Human, C-[…] (Flag®) Tag; Sino Biological; HG10774-CF), yielding HEK293 cells highly expressing CD40. The resulting cells were resuspended in the flow cytometry staining buffer ([…]), and the test antibodies that had been serially diluted to different concentrations were added. After 1 h of incubation on ice, the cells were washed with PBS and centrifuged at 400 g for 5 min. A goat anti-human Fc antibody labeled with the fluorescent group Alexa Fluor 647 was added as a secondary antibody, and the cells were stained in an ice bath for 1 h. After two washes with PBS, the fluorescent signals on the cell surface were detected by FACS. The humanized antibodies of the present disclosure all have relatively high affinities for the cell strain highly expressing CD40.

Sequence of human CD40 on cells (Raji cells; HEK-Blue CD40L cells; human dendritic cells) (P25942 21-277): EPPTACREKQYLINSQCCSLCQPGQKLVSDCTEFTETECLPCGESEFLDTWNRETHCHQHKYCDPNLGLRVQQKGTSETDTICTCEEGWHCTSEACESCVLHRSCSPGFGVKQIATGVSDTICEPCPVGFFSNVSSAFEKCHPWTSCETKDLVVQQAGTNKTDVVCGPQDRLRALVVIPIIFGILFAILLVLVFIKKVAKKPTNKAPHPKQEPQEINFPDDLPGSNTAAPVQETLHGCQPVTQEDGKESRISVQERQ
T1 sequence (P25942 other isoform, or with tags, fused parts or gaps): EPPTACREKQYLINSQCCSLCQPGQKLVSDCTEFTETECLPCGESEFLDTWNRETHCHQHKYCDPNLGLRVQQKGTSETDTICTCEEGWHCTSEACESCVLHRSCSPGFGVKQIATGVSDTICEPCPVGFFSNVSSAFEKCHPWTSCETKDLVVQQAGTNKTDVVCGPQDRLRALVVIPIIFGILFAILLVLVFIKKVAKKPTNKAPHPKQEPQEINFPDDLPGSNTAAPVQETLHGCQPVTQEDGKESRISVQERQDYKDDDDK

| Binder | FcγRIIb-mediated activation of HEK-Blue CD40L cells, EC50 [1] | FcγRIIb-mediated activation of HEK-Blue CD40L cells, Emax (relative fluorescence intensity) [1] | EC50 [2] | Emax (MFI) [2] |
| --- | --- | --- | --- | --- |
| A297V3-Fc (Fc fusion) EVQLVESGGGLVQPGGSLRLSCAASGFTFSRYGMKWVRQAPGKGLEWVSTINSHGDTTYYADSVKGRFTISRDNAKNSLYLQMNSLRAEDTAVYYCLRIDYSDYSSRGQGTLVTVSSEPKSADKTHTCPPCPAPELLGGPSVFLFPPKPKDTLMISRTPEVTCVVVDVEHEDPEVKFNWYVDGVEVHNAKTKPREEQYNSTYRVVSVLTVLHQDWLNGKEYKCKVSSKAFPAPIEKTISKAKGQPREPQVYTLPPSRDELTKNQVSLTCLVKGFYPSDIAVEWESNGQPENNYKTTPPVLDSDGSFFLYSKLTVDKSRWQQGNVFSCSVMHEALHNHYTQKSLSLSPGK | 6 pM | 12.8 relative fluorescence intensity | 1250 pM | 12800 MFI |
| A12V1-Fc (Fc fusion) EVQLVESGGGLVQPGGSLRLSCAASGFTFSNYGMKWVRQAPGKGLEWVSTILSQGGSTYYADSVKGRFTISRDNAKNSLYLQMNSLRAEDTALYYCARVDWSDYSPRGQGTMVTVSSEPKSADKTHTCPPCPAPELLGGPSVFLFPPKPKDTLMISRTPEVTCVVVDVEHEDPEVKFNWYVDGVEVHNAKTKPREEQYNSTYRVVSVLTVLHQDWLNGKEYKCKVSSKAFPAPIEKTISKAKGQPREPQVYTLPPSRDELTKNQVSLTCLVKGFYPSDIAVEWESNGQPENNYKTTPPVLDSDGSFFLYSKLTVDKSRWQQGNVFSCSVMHEALHNHYTQKSLSLSPGK | 9 pM | 21.6 relative fluorescence intensity | 2130 pM | 16600 MFI |
| A12V2-Fc (Fc fusion) EVQLVESGGGLVQPGGSLRLSCAASGFTFSNYGMKWVRQAPGKGLEWVSTILSQGGSTYYADSVKGRFTISRDNAKNSLYLQMNSLRAEDTALYYCLRVDWSDYSPRGQGTQVTVSSEPKSADKTHTCPPCPAPELLGGPSVFLFPPKPKDTLMISRTPEVTCVVVDVEHEDPEVKFNWYVDGVEVHNAKTKPREEQYNSTYRVVSVLTVLHQDWLNGKEYKCKVSSKAFPAPIEKTISKAKGQPREPQVYTLPPSRDELTKNQVSLTCLVKGFYPSDIAVEWESNGQPENNYKTTPPVLDSDGSFFLYSKLTVDKSRWQQGNVFSCSVMHEALHNHYTQKSLSLSPGK | 2 pM | 18.6 relative fluorescence intensity | 420 pM | 16600 MFI |
| A12V3-Fc (Fc fusion) EVQVVESGGGLVQPGGSLRLSCAASGFTFSNYGMKWVRQAPGKGLEWVSTILSQGGSTYYADSVKGRFTISRDNSKNTLYLQMNSLRAEDTAVYYCLRVDWSDYSPRGQGTQVTVSSEPKSADKTHTCPPCPAPELLGGPSVFLFPPKPKDTLMISRTPEVTCVVVDVEHEDPEVKFNWYVDGVEVHNAKTKPREEQYNSTYRVVSVLTVLHQDWLNGKEYKCKVSSKAFPAPIEKTISKAKGQPREPQVYTLPPSRDELTKNQVSLTCLVKGFYPSDIAVEWESNGQPENNYKTTPPVLDSDGSFFLYSKLTVDKSRWQQGNVFSCSVMHEALHNHYTQKSLSLSPGK | 11 pM | 19.1 relative fluorescence intensity | 1740 pM | 16900 MFI |
| A297V1-Fc (Fc fusion) QVQLVESGGGVVQPGGSLRLSCAASGFTFSRYGMKWVRQAPGKGLEWVSTINSHGDTTYYADSVKGRFTISRDNAKNSLYLQMNSLRAEDTALYYCARIDYSDYSSRGQGTMVTVSSEPKSADKTHTCPPCPAPELLGGPSVFLFPPKPKDTLMISRTPEVTCVVVDVEHEDPEVKFNWYVDGVEVHNAKTKPREEQYNSTYRVVSVLTVLHQDWLNGKEYKCKVSSKAFPAPIEKTISKAKGQPREPQVYTLPPSRDELTKNQVSLTCLVKGFYPSDIAVEWESNGQPENNYKTTPPVLDSDGSFFLYSKLTVDKSRWQQGNVFSCSVMHEALHNHYTQKSLSLSPGK | 21 pM | 18.4 relative fluorescence intensity | 1110 pM | 7300 MFI |
